Data: the Immune Epitope Database (IEDB)
Blank lines part the entries; values can stand above or below the sequence they belong to.

Key:
Experiment in all cases: IEDB peptide-MHC binding, purified MHC/competitive/radioactivity; filed as Kd, often an IC50 or EC50 that approximates it; ≥ and ≤ were set here for values at or beyond the usual limits of such assays
[1] = biological target: HLA-B*44:02
[2] = biological target: HLA-B*44:03
[3] = biological target: HLA-B*40:02
[4] = biological target: HLA-B*45:01
[5] = biological target: HLA-B*18:01
[6] = biological target: HLA-B*40:01
[7] = biological target: HLA-B*07:02
[8] = biological target: HLA-B*51:01
[9] = biological target: HLA-B*35:01
[10] = biological target: HLA-B*53:01
[11] = biological target: HLA-B*54:01
[12] = biological target: HLA-A*11:01; details: source organism: Vaccinia virus WR
[13] = biological target: HLA-A*02:01; details: source organism: Vaccinia virus WR
[14] = biological target: HLA-A*03:01; details: source organism: Vaccinia virus WR
[15] = biological target: HLA-A*33:01; details: source organism: Vaccinia virus WR
[16] = biological target: HLA-A*68:02; details: source organism: Vaccinia virus WR
[17] = biological target: HLA-A*02:03; details: source organism: Vaccinia virus WR
[18] = biological target: HLA-A*02:02; details: source organism: Vaccinia virus WR
[19] = biological target: HLA-A*68:01; details: source organism: Vaccinia virus WR
[20] = biological target: HLA-A*02:06; details: source organism: Vaccinia virus WR
[21] = biological target: HLA-A*31:01; details: source organism: Vaccinia virus WR
[22] = source organism: SARS coronavirus Tor2
[23] = source organism: Mammarenavirus choriomeningitidis
[24] = source organism: Vaccinia virus WR
[25] = source organism: Triticum aestivum

Sequence: SEYDYVIFT
Kd [1, 22]: 0.125 µM
Kd [2, 22]: 0.0251 µM
Kd [3, 22]: 0.034 µM
Kd [4, 22]: 0.0114 µM
Kd [5, 22]: 3.27 µM
Kd [6, 22]: 0.998 µM

Sequence: EDQFLPFMS
Kd [1, 23]: 17.4 µM
Kd [2, 23]: ≥ 39.6 µM
Kd [3, 23]: 7.96 µM
Kd [4, 23]: ≥ 23.9 µM
Kd [5, 23]: ≥ 77.5 µM
Kd [6, 23]: 5.67 µM

Sequence: RERVNINIVG
Kd [1, 22]: 7.9 µM
Kd [2, 22]: 6.74 µM
Kd [3, 22]: 0.143 µM
Kd [4, 22]: 1.63 µM
Kd [5, 22]: ≥ 70.5 µM
Kd [6, 22]: 4.91 µM

Sequence: FPSTQRDYY
Kd [7, 24]: ≥ 77.5 µM
Kd [8, 24]: ≥ 77.5 µM
Kd [9, 24]: 0.00108 µM
Kd [10, 24]: 0.00115 µM
Kd [11, 24]: 3.94 µM

Sequence: KQYIVATLMK
Kd [12]: 0.00378 µM
Kd [13]: 11.2 µM
Kd [14]: 0.0056 µM
Kd [15]: 1.15 µM
Kd [16]: ≥ 49 µM
Kd [17]: 9.86 µM
Kd [7, 24]: ≥ 69.6 µM
Kd [18]: 10.6 µM
Kd [19]: 1.34 µM
Kd [20]: 11.4 µM
Kd [8, 24]: ≥ 35 µM
Kd [9, 24]: 18.7 µM
Kd [10, 24]: ≥ 69.9 µM
Kd [11, 24]: 13.7 µM
Kd [21]: 0.00824 µM

Kd [7, 25]: 0.94 µM
Kd [8, 25]: ≥ 30 µM
Kd [9, 25]: ≥ 30.4 µM
Kd [10, 25]: ≥ 69.9 µM
Kd [11, 25]: 0.0905 µM
Sequence: IPPYCTIAPV

Sequence: WPNNCGWKIY
Kd [7, 24]: ≥ 22.8 µM
Kd [8, 24]: ≥ 69.6 µM
Kd [9, 24]: 0.593 µM
Kd [10, 24]: 5.57 µM
Kd [11, 24]: 1.14 µM

Sequence: APGSPTNLEF
Kd [7, 24]: 0.0542 µM
Kd [8, 24]: ≥ 69.6 µM
Kd [9, 24]: 0.85 µM
Kd [10, 24]: 0.556 µM
Kd [11, 24]: ≥ 39.4 µM

Sequence: VEFLKDAWEI
Kd [1, 22]: 0.641 µM
Kd [2, 22]: 0.614 µM
Kd [3, 22]: 0.0774 µM
Kd [4, 22]: 4 µM
Kd [5, 22]: 3.72 µM
Kd [6, 22]: 0.965 µM

Sequence: TPNYMKLLVY
Kd [7, 24]: ≥ 47.8 µM
Kd [8, 24]: ≥ 28.6 µM
Kd [9, 24]: 0.0481 µM
Kd [10, 24]: 0.952 µM
Kd [11, 24]: 14.6 µM

Sequence: IPKFKVTGSY
Kd [7, 24]: 6.6 µM
Kd [8, 24]: ≥ 69.6 µM
Kd [9, 24]: 1.23 µM
Kd [10, 24]: ≥ 69.9 µM
Kd [11, 24]: ≥ 58.2 µM

Sequence: YPTNDIPSLF
Kd [7, 24]: 1.97 µM
Kd [8, 24]: 4.27 µM
Kd [9, 24]: 0.00863 µM
Kd [10, 24]: 0.00767 µM
Kd [11, 24]: 0.473 µM
